Test results as given in publication PMC13379236 (Cell reports, 2026).
Changes are numbered by the printed parent chain. Names and notes keep the numbering of the source.

B1: NLRP1 Gly/N-degron: C-terminal fragment generated by 3C cleavage, which exposes the Gly/N-degron, begins at glycine-131 (protein)
chain: GSERRVLRQLPDTSGRRWREISASLLYQALPSSPDHESPSQESPNAPTSTAVLGSWGSPPQPSLAPREQEAPGTQWPLDETSGIYYTEIREREREKSEKGRPPWAAVVGTPPQAHTSLQPHHHPWEPSVRESLCSTWPWKNEDFNQKFTQLLLLQRPHPRSQDPLVKRSWPDYVEENRGHLIEIRDLFGPGLDTQEPRIVILQGAAGIGKSTLARQVKEAWGRGQLYGDRFQHVFYFSCRELAQSKVVSLAELIGKDGTATPAPIRQILSRPERLLFILDGVDEPGWVLQEPSSELCLHWSQPQPADALLGSLLGKTILPEASFLITARTTALQNLIPSLEQARWVEVLGFSESSRKEYFYRYFTDERQAIRAFRLVKSNKELWALCLVPWVSWLACTCLMQQMKRKEKLTLTSKTTTTLCLHYLAQALQAQPLGPQLRDLCSLAAEGIWQKKTLFSPDDLRKHGLDGAIISTFLKMGILQEHPIPLSYSFIHLCFQEFFAAMSYVLEDEKGRGKHSNCIIDLEKTLEAYGIHGLFGASTTRFLLGLLSDEGEREMENIFHCRLSQGRNLMQWVPSLQLLLQPHSLESLHCLYETRNKTFLTQVMAHFEEMGMCVETDMELLVCTFCIKFSRHVKKLQLIEGRQHRSTWSPTMVVLFRWVPVTDAYWQILFSVLKVTRNLKELDLSGNSLSHSAVKSLCKTLRRPRCLLETLRLAGCGLTAEDCKDLAFGLRANQTLTELDLSFNVLTDAGAKHLCQRLRQPSCKLQRLQLVSCGLTSDCCQDLASVLSASPSLKELDLQQNNLDDVGVRLLCEGLRHPACKLIRLGLDQTTLSDEMRQELRALEQEKPQLLIFSRRKPSVMTPTEGLDTGEMSNSTSSLKRQRLGSERAASHVAQANLKLLDVSKIFPIAEIAEESSPEVVPVELLCVPSPASQGDLHTKPLGTDDDFWGPTGPVATEVVDKEKNLYRVHFPVAGSYRWPNTGLCFVMREAVTVEIEFCVWDQFLGEINPQHSWMVAGPLLDIKAEPGAVEAVHLPHFVALQGGHVDTSLFQMAHFKEEGMLLEKPARVELHHIVLENPSFSPLGVLLKMIHNALRFIPVTSVVLLYHRVHPEEVTFHLYLIPSDCSIRKAIDDLEMKFQFVRIHKPPPLTPLYMGCRYTVSGSGSGMLEILPKELELCYRSPGEDQLFSEFYVGHLGSGIRLQVKDKKDETLVWEALVKPGDLMPATTLIPPARIAVPSPLDAPQLLHFVDQYREQLIARVTSVEVVLDKLHGQVLSQEQYERVLAENTRPSQMRKLFSLSQSWDRKCKDGLYQALKETHPHLIMELWEKGSKKGLLPLSS
B2: E133K: E133K mutation of NLRP1 (residue E3 of the Gly/N-degron) (protein)
chain: B1 chain with E3K

What was measured:
ZYG11B-EloBC = ZYG11B-EloBC (Homo sapiens, UniProt Q9C0D3); assay: MBP pull-down with substrate receptor module ZYG11B-EloBC; type: binding; settings: R466A mutation of ZYG11B, recombinant purified proteins, Figure S9A
Procedure: Peptides corresponding to […] and […] were appended to the N terminus of maltose-binding protein (MBP) and cloned into pET-28a containing an N-terminal His6 tag followed by a TEV protease cleavage site. Fusion proteins were purified by Ni-NTA chromatography, digested with TEV protease, and passed over Ni-NTA resin again to remove TEV and the cleaved His6 tag. Final purification was performed by size-exclusion chromatography. The resulting proteins contained MBP fused to N-terminal Gly/N-degron overhangs. For pulldown experiments, approximately 100 μg MBP fusion protein was immobilized on 50 μL amylose resin and incubated with prey protein at a 1:1 molar ratio for 1 h at 4°C. Resin was washed three times, and bound proteins were eluted in sizing buffer supplemented with 20 mM maltose. Samples were analyzed by SDS-PAGE and Coomassie staining. Pulldown efficiency was quantified as the ratio of MBP–NLRP1 degron signal to ZYG11B signal in the same gel lane. […]
incubation of full-length Cyclin B1 without Gly/N-degron with ZYG11B–EloBC (top). SDS–PAGE analysis of the indicated fractions from the Superose 6 column (dashed lines) confirms complex formation (bottom) C, fluorescence anisotropy binding of ZYG11B-EloBC to indicated fluorescein-labeled peptides (left) and fitted equilibrium dissociation constants (right). […]

NLRP1 inflammasome = type: cell-based, human

Sequence of ZYG11B-EloBC (Q9C0D3 whole entry, the tested form may be a part): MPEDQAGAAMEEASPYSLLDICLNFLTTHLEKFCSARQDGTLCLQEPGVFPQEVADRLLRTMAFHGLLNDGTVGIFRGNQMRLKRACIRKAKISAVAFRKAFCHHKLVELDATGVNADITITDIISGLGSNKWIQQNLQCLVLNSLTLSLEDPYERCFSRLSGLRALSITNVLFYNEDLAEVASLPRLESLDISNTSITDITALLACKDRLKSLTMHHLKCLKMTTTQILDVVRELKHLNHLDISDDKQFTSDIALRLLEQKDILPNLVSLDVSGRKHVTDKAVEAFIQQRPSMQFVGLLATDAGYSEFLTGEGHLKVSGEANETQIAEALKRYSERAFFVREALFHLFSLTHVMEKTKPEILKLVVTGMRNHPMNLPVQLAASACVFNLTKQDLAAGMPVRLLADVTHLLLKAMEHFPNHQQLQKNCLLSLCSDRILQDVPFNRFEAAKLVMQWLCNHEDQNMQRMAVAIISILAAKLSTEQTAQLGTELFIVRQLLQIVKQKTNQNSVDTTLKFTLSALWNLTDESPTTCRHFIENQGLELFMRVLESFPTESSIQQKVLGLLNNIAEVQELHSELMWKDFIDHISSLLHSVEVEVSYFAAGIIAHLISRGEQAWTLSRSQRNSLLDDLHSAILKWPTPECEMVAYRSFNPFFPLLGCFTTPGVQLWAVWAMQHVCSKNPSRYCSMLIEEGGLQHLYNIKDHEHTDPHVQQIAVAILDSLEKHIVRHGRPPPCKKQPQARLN
Sequence of ZYG11B-EloBC (Q15370 whole entry partner, the tested form may be a part): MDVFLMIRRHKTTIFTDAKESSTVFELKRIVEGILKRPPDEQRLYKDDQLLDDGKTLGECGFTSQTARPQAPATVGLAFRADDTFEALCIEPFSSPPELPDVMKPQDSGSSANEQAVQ
Sequence of ZYG11B-EloBC (Q15369 17-112 partner limits assumed): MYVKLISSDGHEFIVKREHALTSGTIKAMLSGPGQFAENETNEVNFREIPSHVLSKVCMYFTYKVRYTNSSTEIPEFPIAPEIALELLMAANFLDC

Molecule	binding to ZYG11B-EloBC R466A mutant versus WT (ZYG11B-EloBC)	inflammasome activation of NLRP1 mutant upon HRV 3Cpro (NLRP1 inflammasome)
B1	relatively strong reduction	–
B2	–	reduced inflammasome activation
